# Measurements taken from patent US20250304918A1 (Regeneron, published 2025).
# T1: mouse CACNG1 (mouse, UniProt O70578 1-223)
# T1 construct: In the functional entries it is the endogenous protein on muscle of D2-mdx mice or on C2C12 myotubes
# T1 sequence: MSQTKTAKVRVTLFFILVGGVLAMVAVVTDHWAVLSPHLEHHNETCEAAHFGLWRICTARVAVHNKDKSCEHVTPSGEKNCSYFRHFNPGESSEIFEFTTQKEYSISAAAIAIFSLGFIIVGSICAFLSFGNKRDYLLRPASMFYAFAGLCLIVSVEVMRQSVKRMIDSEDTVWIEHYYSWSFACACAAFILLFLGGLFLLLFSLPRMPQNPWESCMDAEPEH
# B1: CACNG1 mAb #3 (antibody, V domains shown)
# VH: QVQLVESGGGVVQPGRSLRLSCAASGFTFSTYGMHWVRQAPGKGLEWVAVIWHDGSDKYYVDSVKGRFSIARDNSKNTLYLQMNSLRVEDTGIYYCARRGIRGTVFDHWGLGTLVTVSS
# VL: DIQMTQSPSTLSASVGDRVTLTCRASQSISNKLAWYQQKPGKAPNLLIYKASNLESGVPSRFSGSGSGTEFTLTISSLQPDDFATYYCQQYNSYSWTFGQGTKVEIK
# notes: On AAV particles the heavy chain was fused at its C-terminus to SpyCatcher; also called Antibody Designation 3; 14572/10717
# B2: CACNG1 mAb #1 (antibody, V domains shown)
# VH: QVQLVESGGGVVQPGRSLRLSCTASGITFRNYGMHWVRQAPGKGLEWVAVMWYDGSNKYYADSVKGRFTISGDNSKVYLQMNSLRAEDTAVYYCARRGTIRTAAPFDYWGQGTLVTVSS
# VL: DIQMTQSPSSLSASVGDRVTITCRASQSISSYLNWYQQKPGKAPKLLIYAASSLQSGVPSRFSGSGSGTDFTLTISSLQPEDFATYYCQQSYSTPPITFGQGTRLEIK
# notes: On AAV particles the heavy chain was in a hIgG4US backbone, fused at its C-terminus to SpyCatcher and joined to SpyTag on the capsid; a Fab form was also used; also called anti-hCACNG1 mAb #1; anti-CACNG1 mAb #1
# B3: CACNG1 mAb #5 (antibody, V domains shown)
# VH: QVQLVESGGGVVQPGTSLRLSCAASGFTFSSYGMHWVRQAPGKGLEWVAVIWIDGSNKYYADSVKGRFTISRDNSKNTLYLQMNSLRAEDTAVYYCARRGGIVVAAPFDYWGQGTLVTVSS
# VL: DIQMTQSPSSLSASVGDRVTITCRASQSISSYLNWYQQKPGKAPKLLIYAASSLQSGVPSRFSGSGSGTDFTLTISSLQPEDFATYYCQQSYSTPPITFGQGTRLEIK
# notes: also called Antibody Designation 5; 14574/10783
# What was measured:
# [1] = target: T2, human CACNG1 (Calcium Voltage-Gaged Auxiliary Subunit Gamma 1) (human, UniProt Q06432 1-222); test: no binding assay described; descriptor in figure legend
# T2 construct: In the transduction experiments it was expressed on 293 cells, human myotubes or muscle of humanized mice; also called hCACNG1; human CACNG1 protein
# T2 sequence (Q06432 whole entry): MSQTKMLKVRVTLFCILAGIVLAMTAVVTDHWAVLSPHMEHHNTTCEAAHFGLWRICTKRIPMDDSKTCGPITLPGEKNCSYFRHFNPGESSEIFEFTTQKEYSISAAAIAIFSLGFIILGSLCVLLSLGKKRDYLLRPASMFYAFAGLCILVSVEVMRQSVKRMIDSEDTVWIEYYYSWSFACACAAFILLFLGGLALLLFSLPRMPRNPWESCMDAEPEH
# mouse CACNG1 [2] = target: T1, mouse CACNG1; test: as above
# mouse CACNG1 [3] = target: T1, mouse CACNG1; test: no binding assay described; definition of the label
Binder,binding result [1],binding result (mouse CACNG1 [2]),binding result (mouse CACNG1 [3])
B1,binds,binds,
B2,,,no binding
B3,,,no binding
